Results reported in the supplement of paper PMC9112550, “Optimization of the antimicrobial peptide Bac7 by deep mutational scanning” (BMC Biology, 2022).

Tested on: Escherichia coli TOP10
Test: shrunken log2 fold change of peptide-encoding DNA abundance (4.5 h post-induction vs induction); higher = less antimicrobial activity (less host growth inhibition)
Settings: time post-induction: 4.5 h; library: site-saturation at positions 5, 18, 19, 20
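Note: peptides expressed intracellularly from a pBAD plasmid library in pooled LB shake-flask culture, induced with 0.3% L-arabinose, DNA abundance read by NGS, three biological replicates, DESeq2 with apeglm shrinkage.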

Sequence | shrunken log2 fold change
RRIRDRPPRLPRPRPRPGVIPRP | -0.00423
RRIRLRPPRLPRPRPRPIGLPRP | 0.00285
RRIRYRPPRLPRPRPRPVMEPRP | -0.0459
RRIRMRPPRLPRPRPRPLQMPRP | 2.29
RRIRRRPPRLPRPRPRPVQSPRP | 0.0557
RRIRTRPPRLPRPRPRPRVSPRP | 0.0622
RRIRRRPPRLPRPRPRPRAKPRP | 0.203
RRIRNRPPRLPRPRPRPPTNPRP | 0.151
RRIRCRPPRLPRPRPRPNAWPRP | -0.247
RRIRSRPPRLPRPRPRPAEAPRP | 0.429
RRIRERPPRLPRPRPRPEVTPRP | -0.0794
RRIRRRPPRLPRPRPRPSRWPRP | 0.08
RRIRHRPPRLPRPRPRPAKAPRP | 0.0344
RRIRCRPPRLPRPRPRPHYQPRP | -1.29
RRIRYRPPRLPRPRPRPAKNPRP | -0.508
RRIRLRPPRLPRPRPRPLLKPRP | -0.163
RRIRARPPRLPRPRPRPFLQPRP | 0.123
RRIRQRPPRLPRPRPRPVDGPRP | -0.13
RRIRIRPPRLPRPRPRPLAIPRP | -1.11
RRIRQRPPRLPRPRPRPLNFPRP | -0.233
RRIRIRPPRLPRPRPRPICSPRP | -0.118
RRIRERPPRLPRPRPRPRGTPRP | 0.0483
RRIRMRPPRLPRPRPRPAMYPRP | 2.95
RRIRFRPPRLPRPRPRPSLMPRP | -0.6
RRIRERPPRLPRPRPRPKVRPRP | -0.0607

Sequence | shrunken log2 fold change
RRIRRRPPRLPRPRPRPCRDPRP | 0.0656
RRIRMRPPRLPRPRPRPSWGPRP | 0.155
RRIRPRPPRLPRPRPRPTIWPRP | 0.349
RRIRDRPPRLPRPRPRPRPNPRP | 0.323
RRIRSRPPRLPRPRPRPHHDPRP | -0.759
RRIRTRPPRLPRPRPRPSFWPRP | 0.277
RRIRSRPPRLPRPRPRPRNGPRP | 0.308
RRIRRRPPRLPRPRPRPRLRPRP | 0.848
RRIRTRPPRLPRPRPRPLHCPRP | -0.148
RRIRRRPPRLPRPRPRPEGFPRP | 0.151
RRIRGRPPRLPRPRPRPFTMPRP | -0.278
RRIRIRPPRLPRPRPRPKVNPRP | -0.647
RRIRPRPPRLPRPRPRPMDNPRP | -0.683
RRIRQRPPRLPRPRPRPLNLPRP | -0.249
RRIRDRPPRLPRPRPRPYFNPRP | -0.849
RRIRWRPPRLPRPRPRPVNAPRP | 0.0945
RRIRRRPPRLPRPRPRPYTMPRP | -0.255
RRIRYRPPRLPRPRPRPQQYPRP | -1
RRIRERPPRLPRPRPRPNLQPRP | -0.208
RRIRMRPPRLPRPRPRPILAPRP | 0.261
RRIRQRPPRLPRPRPRPWSVPRP | -0.0201
RRIRIRPPRLPRPRPRPCWGPRP | 0.162
RRIRGRPPRLPRPRPRPCLIPRP | -0.183
RRIRKRPPRLPRPRPRPVLLPRP | 0.122
RRIRYRPPRLPRPRPRPYMPPRP | -0.00804

Sequence | shrunken log2 fold change
RRIRFRPPRLPRPRPRPSYTPRP | -0.771
RRIRVRPPRLPRPRPRPGTRPRP | -0.0152
RRIRFRPPRLPRPRPRPRCVPRP | -0.0244
RRIRKRPPRLPRPRPRPKAAPRP | 0.142
RRIRKRPPRLPRPRPRPMQCPRP | -0.0161
RRIRLRPPRLPRPRPRPRLHPRP | -0.237
RRIRGRPPRLPRPRPRPLCIPRP | 0.366
RRIRTRPPRLPRPRPRPLRAPRP | 1.05
RRIRCRPPRLPRPRPRPWKQPRP | -0.181
RRIRHRPPRLPRPRPRPQTFPRP | -0.105
RRIRFRPPRLPRPRPRPYNRPRP | -0.262
RRIRERPPRLPRPRPRPLLRPRP | -0.152
RRIRGRPPRLPRPRPRPHIAPRP | 2.17
RRIRYRPPRLPRPRPRPKVYPRP | -1.13
RRIRQRPPRLPRPRPRPTWTPRP | -0.0772
RRIRPRPPRLPRPRPRPSFSPRP | -0.578
RRIRSRPPRLPRPRPRPKIIPRP | -0.0525
RRIRLRPPRLPRPRPRPPFHPRP | -0.0331
RRIRPRPPRLPRPRPRPSTQPRP | -0.355
RRIRKRPPRLPRPRPRPNLIPRP | -0.494
RRIRPRPPRLPRPRPRPSRSPRP | 0.0328
RRIRKRPPRLPRPRPRPNRHPRP | -0.0212
RRIRMRPPRLPRPRPRPEYKPRP | 0.359
RRIRSRPPRLPRPRPRPGTEPRP | 0.0221
RRIRGRPPRLPRPRPRPEERPRP | 0.55

Sequence | shrunken log2 fold change
RRIRCRPPRLPRPRPRPDFHPRP | -0.685
RRIRVRPPRLPRPRPRPRMDPRP | -0.371
RRIRSRPPRLPRPRPRPCTDPRP | -0.11
RRIRMRPPRLPRPRPRPPMYPRP | -0.0977
RRIRSRPPRLPRPRPRPGLSPRP | 0.245
RRIRQRPPRLPRPRPRPLAVPRP | 0.0758
RRIRVRPPRLPRPRPRPGPLPRP | 0.0392
RRIRHRPPRLPRPRPRPKFKPRP | 0.0646
RRIRARPPRLPRPRPRPRMSPRP | -0.186
RRIRDRPPRLPRPRPRPWMGPRP | -0.368
RRIRDRPPRLPRPRPRPWHHPRP | -0.179
RRIRTRPPRLPRPRPRPTNKPRP | -0.444
RRIRRRPPRLPRPRPRPEHVPRP | 0.232
RRIRMRPPRLPRPRPRPFMGPRP | -0.0409
RRIRMRPPRLPRPRPRPWSMPRP | -0.156
RRIRVRPPRLPRPRPRPYWIPRP | -0.163
RRIRFRPPRLPRPRPRPEMGPRP | 0.0117
RRIRERPPRLPRPRPRPLCCPRP | -0.191
RRIRQRPPRLPRPRPRPCTAPRP | 0.139
RRIRLRPPRLPRPRPRPSIYPRP | -0.801
RRIRKRPPRLPRPRPRPWSVPRP | -0.0212
RRIRRRPPRLPRPRPRPGSSPRP | 0.103
RRIRIRPPRLPRPRPRPNEIPRP | -0.191
RRIRFRPPRLPRPRPRPYPYPRP | -0.1
RRIRNRPPRLPRPRPRPLNTPRP | -0.413

Sequence | shrunken log2 fold change
RRIRIRPPRLPRPRPRPDRNPRP | -0.913
RRIRSRPPRLPRPRPRPHFGPRP | -0.195
RRIRYRPPRLPRPRPRPGSPPRP | -0.0883
RRIRTRPPRLPRPRPRPCEAPRP | 0.114
RRIRLRPPRLPRPRPRPGRLPRP | 0.0389
RRIRHRPPRLPRPRPRPVRLPRP | 0.0217
RRIRWRPPRLPRPRPRPRWGPRP | 0.534
RRIRGRPPRLPRPRPRPGLDPRP | 1.24
RRIRSRPPRLPRPRPRPCKRPRP | -0.326
RRIRCRPPRLPRPRPRPHRAPRP | -0.096
RRIRTRPPRLPRPRPRPWFYPRP | -0.54
RRIRNRPPRLPRPRPRPIFNPRP | -0.302
RRIRERPPRLPRPRPRPVGDPRP | -0.0343
RRIRERPPRLPRPRPRPLYNPRP | -0.264
RRIRSRPPRLPRPRPRPTVNPRP | -0.477
RRIRPRPPRLPRPRPRPGGRPRP | 0.461
RRIRKRPPRLPRPRPRPLNMPRP | 0.0134
RRIRQRPPRLPRPRPRPKWTPRP | -0.164
RRIRRRPPRLPRPRPRPFMGPRP | -0.366
RRIRSRPPRLPRPRPRPVHMPRP | -0.322
RRIRTRPPRLPRPRPRPVCAPRP | 0.266
RRIRERPPRLPRPRPRPWRRPRP | 0.115
RRIRYRPPRLPRPRPRPMCHPRP | -0.0146
RRIRIRPPRLPRPRPRPTQRPRP | 0.187
RRIRKRPPRLPRPRPRPMGHPRP | 0.000751
